Experiments:
[1] = target: human CD137 ECD-mIgG2a (human); assay: SPR, antibody captured on anti-human Fc surface; analyte taken as human CD137 ECD-mIgG2a
[2] = target: human CD137 ECD-mIgG2a (human); assay: SPR, multispecific antibody captured on anti-human IgG Fc chip, human CD137 ECD-mIgG2a flowed over; Table 15, comparison run with the affinity-matured variants
Method: Briefly, anti-human IgG (Fc) antibody was immobilized on an activated CM5 biosensor chip (Cat.: BR100839, GE Life Sciences). Anti-huCD137 monoclonal antibodies or multispecific antibodies were flown through the chip surface and captured by anti-human IgG (Fc) antibody. […] The equilibrium dissociation constant (KD)) was calculated as the ratio koff/kₒₙ.

[3] = target: T1, full-length human CD137 (huCD137) (human, UniProt Q07011 24-255); assay: flow cytometry on Hut78/huCD137 cells
T1 construct: On transduced Hut78 cells (Hut78/huCD137), transiently on HEK293 cells, or natively on PBMC/T cells; also called TNFRSF9; 4-1BB

[4] = target: human CD137 ECD-mIgG2a (human); assay: SPR, human CD137 ECD-mIgG2a

human CD137 ECD-mIgG2a (human), sequence (chain, as listed by the source limits assumed): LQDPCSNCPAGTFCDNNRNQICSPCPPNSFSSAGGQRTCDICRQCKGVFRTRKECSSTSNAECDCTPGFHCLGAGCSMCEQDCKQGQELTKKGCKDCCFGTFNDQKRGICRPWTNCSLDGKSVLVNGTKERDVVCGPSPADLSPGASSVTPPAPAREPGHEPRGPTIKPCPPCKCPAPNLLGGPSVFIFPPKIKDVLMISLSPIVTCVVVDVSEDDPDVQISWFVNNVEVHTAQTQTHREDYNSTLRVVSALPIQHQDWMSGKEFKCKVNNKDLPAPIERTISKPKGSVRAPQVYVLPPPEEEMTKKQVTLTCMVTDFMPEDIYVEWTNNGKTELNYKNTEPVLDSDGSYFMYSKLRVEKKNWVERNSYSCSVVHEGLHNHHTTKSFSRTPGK
T1 sequence (Q07011 24-255 limits assumed): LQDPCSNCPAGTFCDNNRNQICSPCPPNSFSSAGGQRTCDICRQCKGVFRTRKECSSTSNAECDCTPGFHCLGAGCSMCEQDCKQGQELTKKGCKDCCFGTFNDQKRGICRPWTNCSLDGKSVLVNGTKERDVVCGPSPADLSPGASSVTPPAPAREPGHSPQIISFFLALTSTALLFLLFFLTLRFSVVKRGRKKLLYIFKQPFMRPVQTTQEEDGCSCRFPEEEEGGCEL

B1: A-CD137×CEA-M3 (bispecific antibody, human IgG1, kappa)
heavy: QVQLVQSGAEVKKPGASVKVSCKASGYIFTSYYLHWVRQAPGQGLEWIGYINPQTGKTSYAQKFQGRVTMTRDTSTSTVYMELSSLRSEDTAVYYCAREYGNYNYPLDYWGQGTLVTVSSASTKGPSVFPLAPSSKSTSGGTAALGCLVKDYFPEPVTVSWNSGALTSGVHTFPAVLQSSGLYSLSSVVTVPSSSLGTQTYICNVNHKPSNTKVDKKVEPKSCDKTHTCPPCPAPPAAGPSVFLFPPKPKDTLMISRTPEVTCVVVDVSHEDPEVKFNWYVDGVEVHNAKTKPREEQYNSTYRVVSVLTVLHQDWLNGKEYKCKVSNKALAAPIEKTISKAKGQPREPQVYTLPPSREEMTKNQVSLTCLVKGFYPSDIAVEWESNGQPENNYKTTPPVLDSDGSFFLYSKLTVDKSRWQQGNVFSCSVMHEALHNHYTQKSLSLSPGKGGGGSEVQLLESGGGLVQPGGSLRLSCAASGFTLSAEDVGWVRQAPGKGLEWVSAILDFGGSTYYAESVKGRFTISRDNAKNTLYLQMSSLRAEDTAVYYCARVVYHAGGGVTFDYWGQGTLVTVSS
light: DIQMTQSPSSLSASVGDRVTITCRASENQYGYLAWYQQKPGKVPKLLIYNYKNLVEGVPSRFSGSGSGTDFTLTISSLQPEDVATYYCQHHLGTPYTFGQGTKVEIKRTVAAPSVFIFPPSDEQLKSGTASVVCLLNNFYPREAKVQWKVDNALQSGNSQESVTEQDSKDSTYSLSSTLTLSKADYEKHKVYACEVTHQGLSSPVTKSFNRGEC
notes: The chain is therefore built from its pieces
- Kd [1]: 255 nM
- koff [1]: 0.00267 s⁻¹
- kon [1]: 10500 M⁻¹ s⁻¹
- Kd [2]: 289 nM
- EC50 [3]: 0.52 µg/mL
- Kd [4]: 255 nM
